Source: the supplement of paper PMC5998384

Assays:
HeLa Kyoto [1] = assay: melting temperature (median over replicates), in situ; higher = more thermally stable
HeLa Kyoto [2] = assay: solubility in G1/S (NP-40 vs SDS abundance) (log2 ratio); higher = more soluble; settings: cell cycle stage: G1/S
HeLa Kyoto [3] = assay: thermal stability score vs G1/S (z-score of summed log2 fold changes over temperatures); higher = more thermally stable than in G1/S
HeLa Kyoto [4] = assay: solubility change mitosis vs G1/S (difference of NP-40 vs SDS log2 ratios) (log2 ratio difference); higher = more soluble in mitosis
[5] = cell cycle stage: early G1 (4.5 h after nocodazole release)
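For melting temperature (median over replicates), in situ in this document: HeLa Kyoto cells synchronized by double thymidine or nocodazole block, proteins quantified by TMT10plex mass spectrometry, three independent biological replicates.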
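For solubility change mitosis vs G1/S (difference of NP-40 vs SDS log2 ratios) in this document: synchronized HeLa Kyoto cells (double thymidine block for G1/S, nocodazole release for mitosis), protein amounts in NP-40 versus SDS lysates quantified by mass spectrometry, three biological replicates.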
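For solubility in G1/S (NP-40 vs SDS abundance) in this document: HeLa Kyoto cells arrested at G1/S by double thymidine block, proteins quantified by TMT10plex mass spectrometry in mild NP-40 versus SDS extracts, three biological replicates.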
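For thermal stability score vs G1/S (z-score of summed log2 fold changes over temperatures) in this document: synchronized HeLa Kyoto cells, proteins quantified by TMT10plex mass spectrometry, three biological replicates, mitosis taken 0.5 h after nocodazole release, G1/S directly after double thymidine block.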

Substance	melting temperature (HeLa Kyoto [1]; cell cycle stage: G1/S) [°C]	melting temperature (HeLa Kyoto [1]; cell cycle stage: mitosis) [°C]	solubility in G1/S (log2) (HeLa Kyoto [2])	thermal stability score (HeLa Kyoto [3]; [5])	thermal stability score (HeLa Kyoto [3]; cell cycle stage: mitosis)	solubility change mitosis (log2) (HeLa Kyoto [4])
MEQPKGVDWTVIILTCQYKDSVQVFQRELEVRQKREQIPAGTLLLAVEDPEKRVGSGGATLNALLVAAEHLSARAGFTVVTSDVLHSAWILILHMGRDFPFDDCGRAFTCLPVENPEAPVEALVCNLDCLLDIMTYRLGPGSPPGVWVCSTDMLLSVPANPGISWDSFRGARVIALPGSPAYAQNHGVYLTDPQGLVLDIYYQGTEAEIQRCVRPDGRVPLVSGVVFFSVETAERLLATHVSPPLDACTYLGLDSGARPVQLSLFFDILHCMAENVTREDFLVGRPPELGQGDADVAGYLQSARAQLWRELRDQPLTMAYVSSGSYSYMTSSASEFLLSLTLPGAPGAQIVHSQVEEQQLLAAGSSVVSCLLEGPVQLGPGSVLQHCHLQGPIHIGAGCLVTGLDTAHSKALHGRELRDLVLQGHHTRLHGSPGHAFTLVGRLDSWERQGAGTYLNVPWSEFFKRTGVRAWDLWDPETLPAEYCLPSARLFPVLHPSRELGPQDLLWMLDHQEDGGEALRAWRASWRLSWEQLQPCLDRAATLASRRDLFFRQALHKARHVLEARQDLSLRPLIWAAVREGCPGPLLATLDQVAAGAGDPGVAARALACVADVLGCMAEGRGGLRSGPAANPEWMRPFSYLECGDLAAGVEALAQERDKWLSRPALLVRAARHYEGAGQILIRQAVMSAQHFVSTEQVELPGPGQWVVAECPARVDFSGGWSDTPPLAYELGGAVLGLAVRVDGRRPIGARARRIPEPELWLAVGPRQDEMTVKIVCRCLADLRDYCQPHAPGALLKAAFICAGIVHVHSELQLSEQLLRTFGGGFELHTWSELPHGSGLGTSSILAGTALAALQRAAGRVVGTEALIHAVLHLEQVLTTGGGWQDQVGGLMPGIKVGRSRAQLPLKVEVEEVTVPEGFVQKLNDHLLLVYTGKTRLARNLLQDVLRSWYARLPAVVQNAHSLVRQTEECAEGFRQGSLPLLGQCLTSYWEQKKLMAPGCEPLTVRRMMDVLAPHVHGQSLAGAGGGGFLYLLTKEPQQKEALEAVLAKTEGLGNYSIHLVEVDTQGLSLKLLGTEASTCCPFP [FUK]	56.6	54.8	-0.0525	-0.477	-1.02	-0.182
CLTCL1	50.8	49.8	-0.305	0.282	0.64	-0.0594
MSVPSALMKQPPIQSTAGAVPVRNEKGEISMEKVKVKRYVSGKRPDYAPMESSDEEDEEFQFIKKAKEQEAEPEEQEEDSSSDPRLRRLQNRISEDVEERLARHRKIVEPEVVGESDSEVEGDAWRMEREDSSEEEEEEIDDEEIERRRGMMRQRAQERKNEEMEVMEVEDEGRSGEESESESEYEEYTDSEDEMEPRLKPVFIRKKDRVTVQEREAEALKQKELEQEAKRMAEERRKYTLKIVEEETKKELEENKRSLAALDALNTDDENDEEEYEAWKVRELKRIKRDREDREALEKEKAEIERMRNLTEEERRAELRANGKVITNKAVKGKYKFLQKYYHRGAFFMDEDEEVYKRDFSAPTLEDHFNKTILPKVMQVKNFGRSGRTKYTHLVDQDTTSFDSAWGQESAQNTKFFKQKAAGVRDVFERPSAKKRKTT [MFAP1]	57.2	54.3	-0.901	-4	-4.38	0.782
MRGAMELEPELLLQEARENVEAAQSYRRELGHRLEGLREARRQIKESASQTRDVLKQHFNDLKGTLGKLLDERLVTLLQEVDTIEQETIKPLDDCQKLIEHGVNTAEDLVREGEIAMLGGVGEENEKLWSFTKKASHIQLDSLPEVPLLVDVPCLSAQLDDSILNIVKDHIFKHGTVASRPPVQIEELIEKPGGIIVRWCKVDDDFTAQDYRLQFRKCTSNHFEDVYVGSETEFIVLHIDPNVDYQFRVCARGDGRQEWSPWSVPQIGHSTLVPHEWTAGFEGYSLSSRRNIALRNDSESSGVLYSRAPTYFCGQTLTFRVETVGQPDRRDSIGVCAEKQDGYDSLQRDQAVCISTNGAVFVNGKEMTNQLPAVTSGSTVTFDIEAVTLGTTSNNEGGHFKLRVTISSNNREVVFDWLLDQSCGSLYFGCSFFYPGWKVLVF [CRLF3]	50	49.7	-0.117	-0.0259	-0.0234	-0.13
MAENHAQNKAKLISETRRRFEAEYVTDKSDKYDARDVERLQQDDNWVESYLSWRHNIVDETLKMLDESFQWRKEISVNDLNESSIPRWLLEIGVIYLHGYDKEGNKLFWIRVKYHVKDQKTILDKKKLIAFWLERYAKRENGKPVTVMFDLSETGINSIDMDFVRFIINCFKVYYPKYLSKIVIFDMPWLMNAAFKIVKTWLGPEAVSLLKFTSKNEVQDYVSVEYLPPHMGGTDPFKYSYPPLVDDDFQTPLCENGPITSEDETSSKEDIESDGKETLETISNEEQTPLLKKINPTESTSKAEENEKVDSKVKAFKKPLSVFKGPLLHISPAEELYFGSTESGEKKTLIVLTNVTKNIVAFKVRTTAPEKYRVKPSNSSCDPGASVDIVVSPHGGLTVSAQDRFLIMAAEMEQSSGTGPAELTQFWKEVPRNKVMEHRLRCHTVESSKPNTLTLKDNAFNMSDKTSEDICLQLSRLLESNRKLEDQVQRCIWFQQLLLSLTMLLLAFVTSFFYLLYS [MOSPD2]	51.4	51.4	-0.0365	1.72	0.81	-0.115
MAAMETETAPLTLESLPTDPLLLILSFLDYRDLINCCYVSRRLSQLSSHDPLWRRHCKKYWLISEEEKTQKNQCWKSLFIDTYSDVGRYIDHYAAIKKAWDDLKKYLEPRCPRMVLSLKEGAREEDLDAVEAQIGCKLPDDYRCSYRIHNGQKLVVPGLLGSMALSNHYRSEDLLDVDTAAGGFQQRQGLKYCLPLTFCIHTGLSQYIAVEAAEGRNKNEVFYQCPDQMARNPAAIDMFIIGATFTDWFTSYVKNVVSGGFPIIRDQIFRYVHDPECVATTGDITVSVSTSFLPELSSVHPPHYFFTYRIRIEMSKDALPEKACQLDSRYWRITNAKGDVEEVQGPGVVGEFPIISPGRVYEYTSCTTFSTTSGYMEGYYTFHFLYFKDKIFNVAIPRFHMACPTFRVSIARLEMGPDEYEEMEEEEEEEEEEDEDDDSADMDESDEDDEEERRRRVFDVPIRRRRCSRLF [FBXO3]	53.9	53.3	-0.00208	0.236	0.497	-0.0407
MAEISDLDRQIEQLRRCELIKESEVKALCAKAREILVEESNVQRVDSPVTVCGDIHGQFYDLKELFRVGGDVPETNYLFMGDFVDRGFYSVETFLLLLALKVRYPDRITLIRGNHESRQITQVYGFYDECLRKYGSVTVWRYCTEIFDYLSLSAIIDGKIFCVHGGLSPSIQTLDQIRTIDRKQEVPHDGPMCDLLWSDPEDTTGWGVSPRGAGYLFGSDVVAQFNAANDIDMICRAHQLVMEGYKWHFNETVLTVWSAPNYCYRCGNVAAILELDEHLQKDFIIFEAAPQETRGIPSKKPVADYFL [PPP4C]	54.8	55.3	-0.237	0.0354	-1.42	-0.0748
MAAAAAVEAAAPMGALWGLVHDFVVGQQEGPADQVAADVKSGNYTVLQVVEALGSSLENPEPRTRARAIQLLSQVLLHCHTLLLEKEVVHLILFYENRLKDHHLVIPSVLQGLKALSLCVALPPGLAVSVLKAIFQEVHVQSLPQVDRHTVYNIITNFMRTREEELKSLGADFTFGFIQVMDGEKDPRNLLVAFRIVHDLISRDYSLGPFVEELFEVTSCYFPIDFTPPPNDPHGIQREDLILSLRAVLASTPRFAEFLLPLLIEKVDSEVLSAKLDSLQTLNACCAVYGQKELKDFLPSLWASIRREVFQTASERVEAEGLAALHSLTACLSRSVLRADAEDLLDSFLSNILQDCRHHLCEPDMKLVWPSAKLLQAAAGASARACDSVTSNVLPLLLEQFHKHSQSSQRRTILEMLLGFLKLQQKWSYEDKDQRPLNGFKDQLCSLVFMALTDPSTQLQLVGIRTLTVLGAQPDLLSYEDLELAVGHLYRLSFLKEDSQSCRVAALEASGTLAALYPVAFSSHLVPKLAEELRVGESNLTNGDEPTQCSRHLCCLQALSAVSTHPSIVKETLPLLLQHLWQVNRGNMVAQSSDVIAVCQSLRQMAEKCQQDPESCWYFHQTAIPCLLALAVQASMPEKEPSVLRKVLLEDEVLAAMVSVIGTATTHLSPELAAQSVTHIVPLFLDGNVSFLPENSFPSRFQPFQDGSSGQRRLIALLMAFVCSLPRNVEIPQLNQLMRELLELSCCHSCPFSSTAAAKCFAGLLNKHPAGQQLDEFLQLAVDKVEAGLGSGPCRSQAFTLLLWVTKALVLRYHPLSSCLTARLMGLLSDPELGPAAADGFSLLMSDCTDVLTRAGHAEVRIMFRQRFFTDNVPALVQGFHAAPQDVKPNYLKGLSHVLNRLPKPVLLPELPTLLSLLLEALSCPDCVVQLSTLSCLQPLLLEAPQVMSLHVDTLVTKFLNLSSSPSMAVRIAALQCMHALTRLPTPVLLPYKPQVIRALAKPLDDKKRLVRKEAVSARGEWFLLGSPGS [MMS19]	50.3	49.8	-0.14	-0.678	0.247	-0.141
MWRLRRAAVACEVCQSLVKHSSGIKGSLPLQKLHLVSRSIYHSHHPTLKLQRPQLRTSFQQFSSLTNLPLRKLKFSPIKYGYQPRRNFWPARLATRLLKLRYLILGSAVGGGYTAKKTFDQWKDMIPDLSEYKWIVPDIVWEIDEYIDFEKIRKALPSSEDLVKLAPDFDKIVESLSLLKDFFTSGSPEETAFRATDRGSESDKHFRKVSDKEKIDQLQEELLHTQLKYQRILERLEKENKELRKLVLQKDDKGIHHRKLKKSLIDMYSEVLDVLSDYDASYNTQDHLPRVVVVGDQSAGKTSVLEMIAQARIFPRGSGEMMTRSPVKVTLSEGPHHVALFKDSSREFDLTKEEDLAALRHEIELRMRKNVKEGCTVSPETISLNVKGPGLQRMVLVDLPGVINTVTSGMAPDTKETIFSISKAYMQNPNAIILCIQDGSVDAERSIVTDLVSQMDPHGRRTIFVLTKVDLAEKNVASPSRIQQIIEGKLFPMKALGYFAVVTGKGNSSESIEAIREYEEEFFQNSKLLKTSMLKAHQVTTRNLSLAVSDCFWKMVRESVEQQADSFKATRFNLETEWKNNYPRLRELDRNELFEKAKNEILDEVISLSQVTPKHWEEILQQSLWERVSTHVIENIYLPAAQTMNSGTFNTTVDIKLKQWTDKQLPNKAVEVAWETLQEEFSRFMTEPKGKEHDDIFDKLKEAVKEESIKRHKWNDFAEDSLRVIQHNALEDRSISDKQQWDAAIYFMEEALQARLKDTENAIENMVGPDWKKRWLYWKNRTQEQCVHNETKNELEKMLKCNEEHPAYLASDEITTVRKNLESRGVEVDPSLIKDTWHQVYRRHFLKTALNHCNLCRRGFYYYQRHFVDSELECNDVVLFWRIQRMLAITANTLRQQLTNTEVRRLEKNVKEVLEDFAEDGEKKIKLLTGKRVQLAEDLKKVREIQEKLDAFIEALHQEK [OPA1]	51.3	51	-0.149	1.61	0.517	-0.0649
MKLWVSALLMAWFGVLSCVQAEFFTSIGHMTDLIYAEKELVQSLKEYILVEEAKLSKIKSWANKMEALTSKSAADAEGYLAHPVNAYKLVKRLNTDWPALEDLVLQDSAAGFIANLSVQRQFFPTDEDEIGAAKALMRLQDTYRLDPGTISRGELPGTKYQAMLSVDDCFGMGRSAYNEGDYYHTVLWMEQVLKQLDAGEEATTTKSQVLDYLSYAVFQLGDLHRALELTRRLLSLDPSHERAGGNLRYFEQLLEEEREKTLTNQTEAELATPEGIYERPVDYLPERDVYESLCRGEGVKLTPRRQKRLFCRYHHGNRAPQLLIAPFKEEDEWDSPHIVRYYDVMSDEEIERIKEIAKPKLARATVRDPKTGVLTVASYRVSKSSWLEEDDDPVVARVNRRMQHITGLTVKTAELLQVANYGVGGQYEPHFDFSRNDERDTFKHLGTGNRVATFLNYMSDVEAGGATVFPDLGAAIWPKKGTAVFWYNLLRSGEGDYRTRHAACPVLVGCKWVSNKWFHERGQEFLRPCGSTEVD [P4HA2]	54.2	54.1	0.0555	2.83	4.61	-0.0711
